The target in experiment [1] is Insulin. Put plainly: ELISA, plate coated with insulin 5 ug/mL, test article at 100 nM, anti-human Fc-HRP detection. Background: In an ELISA, binding on a coated surface is turned into a signal by an enzyme label.
The target of experiment [2] is Insulin. The description is as above. This is another data set of the same source.

Like-named read-outs stand apart in the source and are kept apart here.

Turning to Lenzilumab (antibody), the Insulin polyreactivity score was 18 in the experiment with Insulin [1] and 40 with Insulin [2].

For Elotuzumab (antibody), the Insulin polyreactivity score in the experiment with Insulin [1] came out at 2.2; in the experiment with Insulin [2] it was 1.4.

Source of the values: patent publication US20240262905A1.
